Assay results published in PMC6778137, “The midbody interactome reveals unexpected roles for PP1 phosphatases in cytokinesis” (Nature Communications, 2019).
Changes are numbered by the printed parent chain. Values belong to the binder of their own block, whether it stands above or below them.

Molecular target: T1, MBP::PP1β (UniProt P62140 1-327)
T1 construct: PP1β; Expressed from a derivative of plasmid pMH919 carrying MBP instead of 6His; also called MBP-tagged PP1β; source: S. cerevisiae (strain MGY960), purified on amylose resin, eluted with 20 mM maltose
Test: pull-down; GST pull-down: GST::MKLP1_(620–858) proteins on Glutathione Sepharose beads mixed with MBP::PP1β purified from yeast; NET-N+ buffer (50 mM Tris-HCl pH 7.4, 150 mM NaCl, 5 mM EDTA, 0.2% NP-40), 60 min at 4 °C, washes with 250 mM NaCl; western blot
Settings: both partners purified

T1 sequence (P62140 whole entry): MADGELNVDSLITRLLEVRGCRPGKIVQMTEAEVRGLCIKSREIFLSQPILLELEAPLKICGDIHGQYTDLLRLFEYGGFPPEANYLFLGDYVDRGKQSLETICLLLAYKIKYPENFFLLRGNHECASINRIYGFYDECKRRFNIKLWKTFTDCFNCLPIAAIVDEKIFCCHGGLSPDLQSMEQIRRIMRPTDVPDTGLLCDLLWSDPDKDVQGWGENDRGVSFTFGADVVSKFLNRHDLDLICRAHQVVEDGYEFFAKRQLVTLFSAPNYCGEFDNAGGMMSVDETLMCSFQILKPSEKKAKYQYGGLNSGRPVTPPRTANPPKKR

binding result: binds
B1: GST::MKLP1_(620–858) (wild type) (domain or fragment, UniProt Q02241-2 620-856, looked up)
chain: ETTMKWEKECERRVAAKQLEMQNKLWVKDEKLKQLKAIVTEPKTEKPERPSRERDREKVTQRSVSPSPVPLLFQPDQNAPPIRLRHRRSRSAGDRWVDHKPASNMQTETVMQPHVPHAITVSVANEKALAKCEKYMLTHQELASDGEIETKLIKGDIYKTRGGGQSVQFTDIETLKQESPNGSRKRRSSTVAPAQPDGAESEWTDVETRCSVAVEMRAGSQLGPGYQHHAQPKRKKP
notes: Cloned into pDEST15; source: E. coli, purified (Glutathione Sepharose 4B), kept on beads; not shown: GST, N-terminal, kept

binding result: binds
B2: GST::MKLP1_(620–858) AQA mutant (domain or fragment, UniProt Q02241-2 620-856, looked up)
chain: B1 chain with V167A, F169A
notes: Cloned into pDEST15; also called AQA MKLP1; source: E. coli, purified (Glutathione Sepharose 4B), kept on beads; not shown: GST, N-terminal, kept
